± gives the standard deviation.
Experiment: collision cross section of modified peptide (TIMS, N2, iRT-aligned); higher = larger / more extended gas-phase ion
Protocol: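 1/K0 was aligned run-wise to spiked iRT peptides and converted to CCS in N2 (Mason-Schamp). Values are the mean of 1-3 technical replicates for the most abundant feature at each charge state.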

[1] = charge state: 2, modification: Dimethyl (K)
[2] = charge state: 3, modification: Dimethyl (K)
[3] = charge state: 2, modification: Formyl
[4] = charge state: 2, modification: Glutarylation
[5] = charge state: 3, modification: Glutarylation
[6] = charge state: 2, modification: GlyGly (K)
[7] = charge state: 3, modification: GlyGly (K)
[8] = charge state: 2, modification: Malonyl
[9] = charge state: 2, modification: Methyl (K)
[10] = charge state: 3, modification: Methyl (K)
[11] = charge state: 2, modification: Succinyl
[12] = charge state: 3, modification: Succinyl
[13] = charge state: 2, modification: Trimethyl (K)
[14] = charge state: 3, modification: Trimethyl (K)
[15] = charge state: 2, modification: hydroxyisobutyryl
[16] = charge state: 3, modification: hydroxyisobutyryl
[17] = charge state: 2, modification: Nitro (Y)
[18] = charge state: 2, modification: Phospho (Y)
[19] = charge state: 2, modification: Hydroxyproline
[20] = charge state: 3, modification: Hydroxyproline
[21] = charge state: 2, modification: Acetyl (K)
[22] = charge state: 3, modification: Acetyl (K)
[23] = charge state: 2, modification: Biotin
[24] = charge state: 3, modification: Biotin
[25] = charge state: 2, modification: Butyryl
[26] = charge state: 3, modification: Butyryl
[27] = charge state: 2, modification: Crotonyl
[28] = charge state: 3, modification: Crotonyl
[29] = charge state: 3, modification: Formyl
[30] = charge state: 2, modification: HexNAc (ST)
[31] = charge state: 3, modification: HexNAc (ST)

DVNAAIAAIKTK [_DVNAAIAAIK(Dimethyl (K))TK_]
collision cross section [1]: 394.29 ± 0.87 Å² | collision cross section [2]: 456.19 ± 1.7 Å²

DVNAAIAAIKTK [_DVNAAIAAIK(Formyl)TK_]
collision cross section [3]: 377.34 ± 15 Å²

DVNAAIAAIKTK [_DVNAAIAAIK(Gluratylation)TK_]
collision cross section [4]: 410.15 ± 0.99 Å² | collision cross section [5]: 471.67 ± 2.5 Å²

DVNAAIAAIKTK [_DVNAAIAAIK(GlyGly (K))TK_]
collision cross section [6]: 401.67 ± 0.99 Å² | collision cross section [7]: 465.81 ± 1.1 Å²

DVNAAIAAIKTK [_DVNAAIAAIK(Malonyl)TK_]
collision cross section [8]: 406.2 ± 0.59 Å²

DVNAAIAAIKTK [_DVNAAIAAIK(Methyl (K))TK_]
collision cross section [9]: 392.53 ± 0.95 Å² | collision cross section [10]: 462.62 ± 2.7 Å²

DVNAAIAAIKTK [_DVNAAIAAIK(Succinyl)TK_]
collision cross section [11]: 407.52 ± 0.54 Å² | collision cross section [12]: 461.32 Å²

DVNAAIAAIKTK [_DVNAAIAAIK(Trimethyl (K))TK_]
collision cross section [13]: 402.42 ± 1.1 Å² | collision cross section [14]: 465.71 ± 2.2 Å²

DVNAAIAAIKTK [_DVNAAIAAIK(hydroxyisobutyryl)TK_]
collision cross section [15]: 392.68 ± 15 Å² | collision cross section [16]: 466.43 ± 5.5 Å²

DYGNSPLHR [_DY(Nitro (Y))GNSPLHR_]
collision cross section [17]: 341.59 ± 0.55 Å² | collision cross section (charge state: 3, modification: Nitro (Y)): 437.8 ± 1.2 Å²

DYGNSPLHR [_DY(Phospho (Y))GNSPLHR_]
collision cross section [18]: 345.01 ± 0.066 Å² | collision cross section (charge state: 3, modification: Phospho (Y)): 444.49 Å²

DYILEGEPGK [_DY(Nitro (Y))ILEGEPGK_]
collision cross section [17]: 355.27 ± 0.17 Å²

DYILEGEPGK [_DY(Phospho (Y))ILEGEPGK_]
collision cross section [18]: 357.17 ± 0.065 Å²

DYNVTANSK [_DY(Nitro (Y))NVTANSK_]
collision cross section [17]: 334.81 ± 0.16 Å²

DYNVTANSK [_DY(Phospho (Y))NVTANSK_]
collision cross section [18]: 337.74 ± 0.067 Å²

DYQPGITFIVVQK [_DYQP(Hydroxyproline)GITFIVVQK_]
collision cross section [19]: 402.94 ± 0.79 Å² | collision cross section [20]: 487.91 Å²

DYQPGITFIVVQKR [_DYQP(Hydroxyproline)GITFIVVQKR_]
collision cross section [19]: 449.25 ± 1.9 Å² | collision cross section [20]: 517.44 ± 1.2 Å²

DYSAPVNFISAGLKK [_DYSAPVNFISAGLK(Acetyl (K))K_]
collision cross section [21]: 433.43 ± 2.4 Å² | collision cross section [22]: 518.95 ± 1.1 Å²

DYSAPVNFISAGLKK [_DYSAPVNFISAGLK(Biotin)K_]
collision cross section [23]: 458.59 ± 0.47 Å² | collision cross section [24]: 548.62 Å²

DYSAPVNFISAGLKK [_DYSAPVNFISAGLK(Butyryl)K_]
collision cross section [25]: 437.47 ± 5.8 Å² | collision cross section [26]: 532.64 Å²

DYSAPVNFISAGLKK [_DYSAPVNFISAGLK(Crotonyl)K_]
collision cross section [27]: 438.67 ± 0.84 Å² | collision cross section [28]: 525.96 ± 1.3 Å²

DYSAPVNFISAGLKK [_DYSAPVNFISAGLK(Dimethyl (K))K_]
collision cross section [1]: 457.54 ± 1.7 Å² | collision cross section [2]: 517.49 ± 1.2 Å²

DYSAPVNFISAGLKK [_DYSAPVNFISAGLK(Formyl)K_]
collision cross section [3]: 433.25 ± 0.72 Å² | collision cross section [29]: 526.56 ± 0.68 Å²

DYSAPVNFISAGLKK [_DYSAPVNFISAGLK(Gluratylation)K_]
collision cross section [4]: 441.44 ± 0.95 Å² | collision cross section [5]: 535.69 ± 1.8 Å²

DYSAPVNFISAGLKK [_DYSAPVNFISAGLK(GlyGly (K))K_]
collision cross section [6]: 449.5 ± 1.6 Å² | collision cross section [7]: 532.12 ± 1.1 Å²

DYSAPVNFISAGLKK [_DYSAPVNFISAGLK(Malonyl)K_]
collision cross section [8]: 442.5 ± 1.7 Å² | collision cross section (charge state: 3, modification: Malonyl): 530.16 Å²

DYSAPVNFISAGLKK [_DYSAPVNFISAGLK(Methyl (K))K_]
collision cross section [9]: 451.15 ± 3.1 Å² | collision cross section [10]: 513.65 ± 3.5 Å²

DYSAPVNFISAGLKK [_DYSAPVNFISAGLK(Succinyl)K_]
collision cross section [11]: 438.82 ± 0.97 Å² | collision cross section [12]: 533.85 ± 1.6 Å²

DYSAPVNFISAGLKK [_DYSAPVNFISAGLK(Trimethyl (K))K_]
collision cross section [13]: 463.71 ± 1 Å² | collision cross section [14]: 523.24 ± 1.8 Å²

DYSAPVNFISAGLKK [_DYSAPVNFISAGLK(hydroxyisobutyryl)K_]
collision cross section [15]: 443.11 ± 0.56 Å² | collision cross section [16]: 536.52 ± 2.1 Å²

DYSQPTAAATVQDIK [_DYSQPTAAAT(HexNAc (ST))VQDIK_]
collision cross section [30]: 449.73 ± 0.61 Å²

DYSSGFGGKYGVQADR [_DYSSGFGGK(Acetyl (K))YGVQADR_]
collision cross section [21]: 430.77 ± 2.2 Å²

DYSSGFGGKYGVQADR [_DYSSGFGGK(Biotin)YGVQADR_]
collision cross section [23]: 450.72 ± 0.16 Å² | collision cross section [24]: 509.9 ± 0.34 Å²

DYSSGFGGKYGVQADR [_DYSSGFGGK(Butyryl)YGVQADR_]
collision cross section [25]: 438.71 ± 1.6 Å²

DYSSGFGGKYGVQADR [_DYSSGFGGK(Crotonyl)YGVQADR_]
collision cross section [27]: 437.04 ± 0.54 Å²

DYSSGFGGKYGVQADR [_DYSSGFGGK(Dimethyl (K))YGVQADR_]
collision cross section [1]: 435.9 ± 1.8 Å² | collision cross section [2]: 488.23 ± 0.74 Å²

DYSSGFGGKYGVQADR [_DYSSGFGGK(Formyl)YGVQADR_]
collision cross section [3]: 429.11 ± 0.79 Å²

DYSSGFGGKYGVQADR [_DYSSGFGGK(Gluratylation)YGVQADR_]
collision cross section [4]: 441.26 ± 0.95 Å²

DYSSGFGGKYGVQADR [_DYSSGFGGK(GlyGly (K))YGVQADR_]
collision cross section [6]: 440.03 ± 1.4 Å² | collision cross section [7]: 489.79 ± 1.3 Å²

DYSSGFGGKYGVQADR [_DYSSGFGGK(Malonyl)YGVQADR_]
collision cross section [8]: 435.88 ± 0.59 Å²

DYSSGFGGKYGVQADR [_DYSSGFGGK(Methyl (K))YGVQADR_]
collision cross section [9]: 432 Å² | collision cross section [10]: 489.11 ± 2.4 Å²

DYSSGFGGKYGVQADR [_DYSSGFGGK(Propionyl)YGVQADR_]
collision cross section (charge state: 2, modification: Propionyl): 432.72 Å²

DYSSGFGGKYGVQADR [_DYSSGFGGK(Succinyl)YGVQADR_]
collision cross section [11]: 438.99 ± 0.83 Å²

DYSSGFGGKYGVQADR [_DYSSGFGGK(Trimethyl (K))YGVQADR_]
collision cross section [13]: 437.78 ± 0.016 Å² | collision cross section [14]: 486.86 ± 1.8 Å²

DYSSGFGGKYGVQADR [_DYSSGFGGK(hydroxyisobutyryl)YGVQADR_]
collision cross section [15]: 442.2 ± 0.79 Å²

DYSVTANSK [_DY(Nitro (Y))SVTANSK_]
collision cross section [17]: 331.98 ± 0.55 Å²

DYSVTANSK [_DY(Phospho (Y))SVTANSK_]
collision cross section [18]: 332.04 ± 0.69 Å²

DYVSQFEGSALGK [_DY(Nitro (Y))VSQFEGSALGK_]
collision cross section [17]: 387.16 ± 0.17 Å²

DYVSQFEGSALGK [_DY(Phospho (Y))VSQFEGSALGK_]
collision cross section [18]: 391.59 ± 0.64 Å²

EEKPAVTAAPK [_EEKPAVT(HexNAc (ST))AAPK_]
collision cross section [30]: 383.27 ± 0.13 Å² | collision cross section [31]: 484.12 ± 0.17 Å²

EGFSIPVSADGFK [_EGFSIPVS(HexNAc (ST))ADGFK_]
collision cross section [30]: 412.81 ± 0.62 Å²

ELANFDPSRPGPPSGR [_ELANFDPS(HexNAc (ST))RPGPPSGR_]
collision cross section [31]: 503.12 ± 0.18 Å²

EPFSGDHSADGFEVTSR [_EPFS(HexNAc (ST))GDHSADGFEVTSR_]
collision cross section [31]: 513.98 ± 1.8 Å²

ESISVSSEQLAQFR [_ES(HexNAc (ST))ISVSSEQLAQFR_]
collision cross section [30]: 438.25 Å²

ETTPSSLAVTQTMATK [_ETTPSSLAVTQT(HexNAc (ST))MATK_]
collision cross section [30]: 451.07 Å²

EVVKPVPITSPAVSK [_EVVKPVPIT(HexNAc (ST))SPAVSK_]
collision cross section [30]: 445.83 ± 0.56 Å² | collision cross section [31]: 512.07 ± 2.8 Å²

FDDTNPEKEEAK [_FDDTNPEK(Acetyl (K))EEAK_]
collision cross section [21]: 394.25 ± 1.3 Å² | collision cross section [22]: 440.01 ± 0.78 Å²

FDDTNPEKEEAK [_FDDTNPEK(Biotin)EEAK_]
collision cross section [23]: 416.55 ± 1.6 Å² | collision cross section [24]: 504.96 ± 0.34 Å²

FDDTNPEKEEAK [_FDDTNPEK(Butyryl)EEAK_]
collision cross section [25]: 399.47 ± 0.85 Å² | collision cross section [26]: 440.77 ± 2 Å²

FDDTNPEKEEAK [_FDDTNPEK(Crotonyl)EEAK_]
collision cross section [27]: 399.58 ± 0.79 Å² | collision cross section [28]: 439.29 Å²

FDDTNPEKEEAK [_FDDTNPEK(Dimethyl (K))EEAK_]
collision cross section [1]: 399.09 ± 0.55 Å² | collision cross section [2]: 487.33 ± 2.2 Å²

FDDTNPEKEEAK [_FDDTNPEK(Formyl)EEAK_]
collision cross section [3]: 390.88 ± 0.55 Å² | collision cross section [29]: 435.1 Å²

FDDTNPEKEEAK [_FDDTNPEK(Gluratylation)EEAK_]
collision cross section [4]: 403.46 ± 1.1 Å² | collision cross section [5]: 440.63 Å²

FDDTNPEKEEAK [_FDDTNPEK(GlyGly (K))EEAK_]
collision cross section [6]: 402.92 ± 5.6 Å² | collision cross section [7]: 486.07 ± 0.34 Å²

FDDTNPEKEEAK [_FDDTNPEK(Malonyl)EEAK_]
collision cross section [8]: 398.04 ± 0.6 Å²

Reference: the supplement of paper PMC10598134
